In publication PMC10686989, “Distinct activation mechanisms of β-arrestin-1 revealed by ^19F NMR spectroscopy” (Nature Communications, 2023):

Biological target: cysteine-less β-arrestin-1 D390C, 19F-labelled with wPSP-6F (human) (UniProt P49407)
Assay: NMR titration; 19F NMR of wPSP-6F-labelled βarr1 (D390C site) titrated with phosphopeptide; 298 K, 20 mM Tris-HCl, 150 mM NaCl, pH 8.0; Kd estimated

Chain of cysteine-less β-arrestin-1 D390C, 19F-labelled with wPSP-6F (human) (P49407 whole entry C59V/C125S/C140L/C150V/C242V/C251V/C269S/D390C): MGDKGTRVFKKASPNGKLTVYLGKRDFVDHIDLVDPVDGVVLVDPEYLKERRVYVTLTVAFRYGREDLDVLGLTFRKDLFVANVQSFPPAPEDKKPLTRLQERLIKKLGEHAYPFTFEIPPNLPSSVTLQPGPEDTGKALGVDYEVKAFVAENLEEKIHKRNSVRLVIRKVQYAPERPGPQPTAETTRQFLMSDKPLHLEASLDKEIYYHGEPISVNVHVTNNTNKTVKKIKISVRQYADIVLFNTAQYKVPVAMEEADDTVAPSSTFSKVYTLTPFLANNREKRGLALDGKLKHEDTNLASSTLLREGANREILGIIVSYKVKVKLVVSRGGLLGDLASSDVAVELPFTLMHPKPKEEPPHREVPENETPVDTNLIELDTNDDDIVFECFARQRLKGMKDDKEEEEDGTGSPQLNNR

Kd: 1.3 µM
Substance: V2Rpp, phosphopeptide derived from the vasopressin V2 receptor (V2R)
